Test results reported in paper PMC4300948 (Nanoscale, 2014).
Where no end group is shown, it is not given here.

Columns and labels:
[1] = molecular target: physiologic human von Willebrand factor (VWF) (human, UniProt P04275 764-2813)
[2] = molecular target: FVIII free human von Willebrand factor (VWF) (human, UniProt P04275 764-2813)

Question: Does TRYLRIHPQSWVHQI (also: lipid-peptide bioconjugate, displayed on liposome surface) [VWF-binding peptide (VBP), FVIII-derived, decorated on liposomal nanoconstructs] bind [1]?
Answer: binds

Question: Does TRYLRIHPQSWVHQI (also: lipid-peptide bioconjugate, displayed on liposome surface) [VWF-binding peptide (VBP), FVIII-derived, decorated on liposomal nanoconstructs] bind [2]?
Answer: binds
